Measured values taken from patent publication US20260234242A1 (HAINAN SIMCERE ZAIMING PHARMACEUTICAL, published 2026).

Target: T1, his-tagged human CDH6 extracellular region protein (hCDH6 ECD-his) (human, UniProt P55285 19-615)
T1 construct: also called Human CDH6-his; hCDH6-his; not shown: his tag
T1 sequence: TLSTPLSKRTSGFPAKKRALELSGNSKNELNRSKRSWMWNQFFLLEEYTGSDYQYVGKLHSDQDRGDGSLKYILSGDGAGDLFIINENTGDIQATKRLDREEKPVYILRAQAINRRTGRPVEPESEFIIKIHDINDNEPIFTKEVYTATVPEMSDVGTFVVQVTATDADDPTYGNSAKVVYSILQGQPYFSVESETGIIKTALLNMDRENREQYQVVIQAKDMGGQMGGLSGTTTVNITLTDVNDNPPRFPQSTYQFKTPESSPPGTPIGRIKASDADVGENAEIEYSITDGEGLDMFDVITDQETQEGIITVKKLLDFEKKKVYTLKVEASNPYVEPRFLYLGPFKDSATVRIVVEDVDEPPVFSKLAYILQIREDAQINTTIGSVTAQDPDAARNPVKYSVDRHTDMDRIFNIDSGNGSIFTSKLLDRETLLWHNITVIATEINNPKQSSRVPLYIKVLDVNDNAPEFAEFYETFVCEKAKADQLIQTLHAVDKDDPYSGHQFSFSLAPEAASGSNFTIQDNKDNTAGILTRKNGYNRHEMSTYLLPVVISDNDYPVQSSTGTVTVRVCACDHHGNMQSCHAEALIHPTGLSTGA
Test: ELISA, coated antigen; ELISA, hCDH6 ECD-his coated at 1 µg/mL, antibody in solution; chimeric antibody run (Table 5)
Procedure: Human CDH6 protein (hCDH6 ECD-his, conventionally synthesized), monkey CDH6 protein (cynoCDH6 ECD-his, conventionally synthesized; the cynoCDH6 ECD sequence was derived from Uniprot #A0A2K5TW62 (19-615)), and murine CDH6 protein (mCDH6 ECD-his, conventionally synthesized; the mCDH6 ECD sequence was derived from Uniprot #P97326 (19-615)) were diluted with PBS to a final concentration of 1 μg/mL, and added to a 96-well ELISA plate at 100 μL/well. The plate was incubated at 4° C. overnight. The next day, the plate was washed 3 times with a plate washing solution (PBS+0.01% (v/v) Tween 20), and a blocking buffer (PBS+0.01% (v/v) Tween 20+2% (w/w) BSA) was added for blocking at room temperature for 2 h. The blocking buffer was discarded, and the plate was washed 3 times. The chimeric antibodies were diluted with 1% BSA+PBS (purchased from Cytiva, Cat. No. SH30264.01) and added to the 96-well plate at 50 μL/well. After incubation at 37° C. for 2 h, the plate was washed 3 times with a plate washing solution. […] The plate was incubated at 37° C. for 1 h and then washed 5 times with a plate washing solution. […] OD450 nm values were read using a microplate reader (Biotek). Analysis was performed by the GraphPad Prism software, data were fitted, and EC50 values were calculated. […]

EC50: 0.044 nM
B1: CHI-CDH6-14 (antibody, human IgG1, kappa, V domains shown)
VH: QIQLQQSGPELVKPGTSVKISCKASGYTFTDNYINWVRQRPGQGLEWIGWIYPGTGNSYYNEKFKGKATLTVDTSSSTAYMQFSSLTSEDSAVYLCASSYGDSFDYWGQGTTLTVSS
VL: DIQMTQTTSSLSASLGNRVTISCRASQDIRNYLNWYQQKPDGTFKLLISYTSRLHSGVPSRFSGSGSGTDYSLTVSNLEPEDIATYYCQQYSQLPWTFGGGSRLEIKR
notes: also called CHI-hCDH6-14; CH1-CDH6-14
